For this experiment, the target named is soluble recombinant cynomolgus TCR α/β-zipper protein (cynomolgus/rhesus monkey). Briefly: ELISA, 2 µg/mL coated soluble recombinant cynomolgus TCR α/β-zipper protein. For orientation: In an ELISA, binding on a coated surface is turned into a signal by an enzyme label.
soluble recombinant cynomolgus TCR α/β-zipper protein (cynomolgus/rhesus monkey), sequence (alpha, as listed by the source limits assumed, form in doubt, chain 1 of 2): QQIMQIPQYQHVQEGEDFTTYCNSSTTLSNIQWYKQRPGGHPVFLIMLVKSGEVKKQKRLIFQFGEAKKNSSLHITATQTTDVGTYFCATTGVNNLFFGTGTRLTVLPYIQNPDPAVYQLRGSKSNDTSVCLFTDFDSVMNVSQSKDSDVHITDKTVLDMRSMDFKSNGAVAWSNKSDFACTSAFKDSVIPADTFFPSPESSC
soluble recombinant cynomolgus TCR α/β-zipper protein (cynomolgus/rhesus monkey), sequence (beta, as listed by the source limits assumed, form in doubt, chain 2 of 2): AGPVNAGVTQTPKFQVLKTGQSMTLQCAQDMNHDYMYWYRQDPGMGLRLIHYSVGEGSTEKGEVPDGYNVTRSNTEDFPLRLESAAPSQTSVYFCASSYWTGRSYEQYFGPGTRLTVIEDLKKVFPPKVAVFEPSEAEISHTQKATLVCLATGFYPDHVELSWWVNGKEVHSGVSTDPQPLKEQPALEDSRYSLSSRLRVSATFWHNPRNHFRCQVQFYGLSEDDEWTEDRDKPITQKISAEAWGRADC

As usually defined, the EC50 (read off the curve) is the concentration at which the effect is half-maximal. As for “anti-non-human primate/Rat TCRα/β antibody clone R73”, the EC50 (read off the curve) was determined as 100 pM.
